# T1: threonine deaminase (Ilv1), wild-type (Saccharomyces cerevisiae, UniProt P00927)
# T1 sequence (P00927 46-576): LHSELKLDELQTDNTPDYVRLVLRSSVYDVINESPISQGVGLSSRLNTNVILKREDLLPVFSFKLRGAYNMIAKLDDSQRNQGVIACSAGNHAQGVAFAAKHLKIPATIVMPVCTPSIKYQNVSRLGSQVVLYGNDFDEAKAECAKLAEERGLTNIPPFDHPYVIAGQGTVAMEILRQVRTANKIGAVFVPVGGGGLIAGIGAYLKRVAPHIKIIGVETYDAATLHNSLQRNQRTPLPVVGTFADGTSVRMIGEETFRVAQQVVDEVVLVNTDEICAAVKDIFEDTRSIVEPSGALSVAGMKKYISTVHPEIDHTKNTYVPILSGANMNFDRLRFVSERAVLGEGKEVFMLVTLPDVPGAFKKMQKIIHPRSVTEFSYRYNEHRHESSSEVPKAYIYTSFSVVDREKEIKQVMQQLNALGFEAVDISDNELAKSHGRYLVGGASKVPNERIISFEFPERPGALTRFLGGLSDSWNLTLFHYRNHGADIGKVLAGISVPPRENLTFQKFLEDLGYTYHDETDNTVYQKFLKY
# Assays:
# [1] = target: T1, threonine deaminase (Ilv1), wild-type; assay: biochemical; settings: read-out: GDH-coupled TD activity assay with purified Ilv1; 1.8-fold activation at 5 mM Va
# [2] = target: T1, threonine deaminase (Ilv1), wild-type; assay: GDH-coupled NADH oxidation assay of TD activity with purified recombinant Ilv1; assay type: biochemical
# purified protein = substrate: C[C@@H](O)[C@H](N)C(=O)O; assay: purified protein; assay type: biochemical, Saccharomyces cerevisiae; settings: pyridoxal-5'-phosphate
Molecule,fold induction at 5000 µM [1],IC50 [2] [µM],K0.5 (purified protein) [mM],kcat (purified protein) [s⁻¹],kcat/Km (purified protein) [M⁻¹ s⁻¹]
CC(C)[C@H](N)C(=O)O [valine],1.8,,,,
CC[C@H](C)[C@H](N)C(=O)O [isoleucine],,270 ± 9,,,
"threonine deaminase (Ilv1), wild-type (Saccharomyces cerevisiae S288C) (protein, recombinant Ilv1 lacking the N-terminal 45 amino acid residues (mitochondrial localization signal), expressed in E. coli BL21(DE3)) LHSELKLDELQTDNTPDYVRLVLRSSVYDVINESPISQGVGLSSRLNTNVILKREDLLPVFSFKLRGAYNMIAKLDDSQRNQGVIACSAGNHAQGVAFAAKHLKIPATIVMPVCTPSIKYQNVSRLGSQVVLYGNDFDEAKAECAKLAEERGLTNIPPFDHPYVIAGQGTVAMEILRQVRTANKIGAVFVPVGGGGLIAGIGAYLKRVAPHIKIIGVETYDAATLHNSLQRNQRTPLPVVGTFADGTSVRMIGEETFRVAQQVVDEVVLVNTDEICAAVKDIFEDTRSIVEPSGALSVAGMKKYISTVHPEIDHTKNTYVPILSGANMNFDRLRFVSERAVLGEGKEVFMLVTLPDVPGAFKKMQKIIHPRSVTEFSYRYNEHRHESSSEVPKAYIYTSFSVVDREKEIKQVMQQLNALGFEAVDISDNELAKSHGRYLVGGASKVPNERIISFEFPERPGALTRFLGGLSDSWNLTLFHYRNHGADIGKVLAGISVPPRENLTFQKFLEDLGYTYHDETDNTVYQKFLKY",,,40 ± 2.2,75 ± 4.1,1870
"threonine deaminase (Ilv1), H480Y variant (Saccharomyces cerevisiae S288C; H480Y) (protein, recombinant Ilv1 lacking the N-terminal 45 amino acid residues (mitochondrial localization signal), expressed in E. coli BL21(DE3)) LHSELKLDELQTDNTPDYVRLVLRSSVYDVINESPISQGVGLSSRLNTNVILKREDLLPVFSFKLRGAYNMIAKLDDSQRNQGVIACSAGNHAQGVAFAAKHLKIPATIVMPVCTPSIKYQNVSRLGSQVVLYGNDFDEAKAECAKLAEERGLTNIPPFDHPYVIAGQGTVAMEILRQVRTANKIGAVFVPVGGGGLIAGIGAYLKRVAPHIKIIGVETYDAATLHNSLQRNQRTPLPVVGTFADGTSVRMIGEETFRVAQQVVDEVVLVNTDEICAAVKDIFEDTRSIVEPSGALSVAGMKKYISTVHPEIDHTKNTYVPILSGANMNFDRLRFVSERAVLGEGKEVFMLVTLPDVPGAFKKMQKIIHPRSVTEFSYRYNEHRHESSSEVPKAYIYTSFSVVDREKEIKQVMQQLNALGFEAVDISDNELAKSYGRYLVGGASKVPNERIISFEFPERPGALTRFLGGLSDSWNLTLFHYRNHGADIGKVLAGISVPPRENLTFQKFLEDLGYTYHDETDNTVYQKFLKY",,,42 ± 2.4,75 ± 3.6,1780

# — article PMC8904041, “High-Level Production of Isoleucine and Fusel Alcohol by Expression of the Feedback Inhibition-Insensitive Threonine Deaminase in Saccharomyces cerevisiae” (Applied and Environmental Microbiology, 2022)
